Data from paper doi:10.1101/2021.11.12.467822 (bioRxiv, 2021).
Residue numbers refer to the chain shown, from its start. Names and notes keep the numbering of the source.

B1: UBQLN2 450-624 (domain or fragment)
chain: RAMQALMQIQQGLQTLATEAPGLIPSFTPGVGVGVLGTAIGPVGPVTPIGPIGPIVPFTPIGPIGPIGPTGPAAPPGSTGSGGPTGPTVSSAAPSETTSPTSESGPNQQFIQQMVQALAGANAPQLPNPEVRFQQQLEQLNAMGFLNREANLQALIATGGDINAAIERLLGSQPS
B2: fluorescently-labeled UBQLN2 450-624 (S624C, Alexa Fluor 488) (domain or fragment)
chain: B1 chain with S175C
modifications: Alexa Fluor 488 C5 Maleimide label (S624C mutation)

Assays:
M1-linked Ub4 [1] = target: M1-linked Ub4 (UniProt P0CG48); assay: NMR titration
HOTag6-G10-Ub [2] = assay: NMR titration
M1-linked Ub4 [3] = target: M1-linked Ub4 (UniProt P0CG48); assay: fluorescence polarisation
HOTag6-G10-Ub [4] = assay: fluorescence polarisation
ubiquitin (Ub) = ubiquitin (Ub) (UniProt P0CG48 1-76); assay: fluorescence polarisation

Sequence of M1-linked Ub4 (P0CG48 1-304): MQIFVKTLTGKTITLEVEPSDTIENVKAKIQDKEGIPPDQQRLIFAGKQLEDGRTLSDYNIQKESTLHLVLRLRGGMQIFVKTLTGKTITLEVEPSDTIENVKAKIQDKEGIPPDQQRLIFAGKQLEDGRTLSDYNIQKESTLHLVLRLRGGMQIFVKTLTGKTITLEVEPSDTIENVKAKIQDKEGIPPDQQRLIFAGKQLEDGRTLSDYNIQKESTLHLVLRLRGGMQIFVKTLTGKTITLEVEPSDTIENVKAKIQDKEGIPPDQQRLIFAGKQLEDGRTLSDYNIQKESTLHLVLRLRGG

| Binder | Kd (M1-linked Ub4 [1]) [µM] | Kd (HOTag6-G10-Ub [2]) [µM] | Kd (M1-linked Ub4 [3]) [µM] | Kd (HOTag6-G10-Ub [4]) [µM] | Kd (ubiquitin (Ub)) [µM] |
| --- | --- | --- | --- | --- | --- |
| B1 | 12.8 | 8.8 | – | – | – |
| B2 | – | – | 5.1 | 7 | 3.4 |
